Legend:
[1] = target: CosR (Campylobacter jejuni) (UniProt A0A3H9R6A1); experiment: fluorescence polarization; details: FP: 10 mM PBS pH 7.4, 5 nM fluoresceinated DNA, 1 ug poly(dI-dC), 25 C
[2] = target: Campylobacter jejuni CosR regulator (Campylobacter jejuni); experiment: crystal structure; CosR (8 mg/mL) with 21 bp DNA1 duplex (2.6 mg/mL), vapor diffusion, Na-MES pH 6.5, 2.90 Å; the dimer is formed by a crystallographic symmetry operator
[3] = target: Campylobacter jejuni CosR regulator (Campylobacter jejuni); experiment: cryo-EM structure; single-particle cryo-EM of 20 uM CosR incubated 2 h with 10 uM 40 bp ds-DNA; the class of DNA-free particles (apo-CosR) sorted in silico (build and retrieve), 3.77 Å
[4] = target: Campylobacter jejuni CosR regulator (Campylobacter jejuni); experiment: crystal structure; CosR (320 uM) with 21 bp DNA2 duplex (192 uM), vapor diffusion, Na-MES pH 6.5, 2.20 Å

Row | Substance | Kd [1] [nM] | stoichiometry N [2] | stoichiometry N [3] | stoichiometry N [4]
1 | AATTAAGATATTATTAACCAA (double strand) [DNA2 (fluorescein)] | 2.5 | – | – | –
2 | Campylobacter jejuni CosR regulator (natural protein) | – | 2 | 2 | 2
3 | TATTAACCAAAATTAAGATAT (double strand) [DNA1 (fluorescein)] | 4.5 | – | – | –

— article PMC10936212
